Source: paper doi:10.1101/2022.07.12.499507 (bioRxiv, 2022)
One block for each binder: values may come before it.

B2: Eaf1 (natural protein)
chain: MSSRPSSAVPNSASLSEDQSSDRSKFPKADDLIDERDRKLTELYCVSRLNQLLELTDENKLRKEIDAFLKKNDIRRGIRFDEASLPKLLHTAATPITKKKLKDVNLINVPNQRLSDSKMSRELPENSENVSVKSESHFVPSHDNSIRENMMDSLRPAEKTGGMWNKRPLESTMGGEEERHEKRQKMQSQSLESSNNSEMASLPISPRPPVPNALAHYTYYENIEYPPADPTEVQPAVKFKDPLIKNIMAKEIDTSDHYNENNVDALETVFLLMNDYIPSKIPQALPLAELKYMSQTLPLINLIPRAHKALTTNIINNALNEARITVVGSRIEELRRLGLWSLRQPKRFIDPWKQHNTHQNILLEEAKWMQADFKEGHKYKVAICTAMAQAIKDYWTYGEICCVKRKTLLPGKENKLSDDGRISEKSGRPSDTSRNDSDISIAGKDDIGIIANVDDITEKESAAANDNDENGKNEAGAKSDFDFADGLLSQEGAHDQIISSIDTKLLLKKPSSSSEVVLIQHEVAASSALIETEESKKELAPPFKLSIFVDELNTFEKTLIQDLPLYNGINEERPKKDDSLPFIPISKSVVSLDDNGFYKLLERQLIDEEPSISQLSKRRGMFYGNRRNHYLRPPAVPSLRYLQNRTPTIWLSEDDQELVKNINTYGYNWELISAHMTHRLTYSYLSNIERRTPWQCFERFVQLNERFNFSDLKGPRAHSAQQWLIEAHKFQQRQNRRISPLGVNTESIQRGHRRLRWASMFEAIRKCMKKRENTPRPNPTQPRKPLDCKNMKVPTPAEMSLLKAQRDEALRRDIQLRRTVKNRLQQRQQQSQQAHSSRAQSPIPSNGKSSSNLARNGQASAPRPNQKQYTEQDIIESYSRKLLEQKPDIGPEMALKAAKNYYRTLREQQQQLKQHQIQQQRQQLQEESSHVQQLQQLQPGSQAPPPKSSPSQSSLSNISNINSAPRIKSPTPQEILQRFQKQ
B4: Yng2 (natural protein)
chain: MDPSLVLEQTIQDVSNLPSEFRYLLEEIGSNDLKLIEEKKKYEQKESQIHKFIRQQGSIPKHPQEDGLDKEIKESLLKCQSLQREKCVLANTALFLIARHLNKLEKNIALLEEDGVLAPVEEDGDMDSAAEASRESSVVSNSSVKKRRAASSSGSVPPTLKKKKTSRTSKLQNEIDVSSREKSVTPVSPSIEKKIARTKEFKNSRNGKGQNGSPENEEEDKTLYCFCQRVSFGEMVACDGPNCKYEWFHYDCVNLKEPPKGTWYCPECKIEMEKNKLKRKRN
B7: Epl1 (natural protein)
chain: MPTPSNAIEINDGSHKSGRSTRRSGSRSAHDDGLDSFSKGDSGAGASAGSSNSRFRHRKISVKQHLKIYLPNDLKHLDKDELQQREVVEIETGVEKNEEKEVHLHRILQMGSGHTKHKDYIPTPDASMTWNEYDKFYTGSFQETTSYIKFSATVEDCCGTNYNMDERDETFLNEQVNKGSSDILTEDEFEILCSSFEHAIHERQPFLSMDPESILSFEELKPTLIKSDMADFNLRNQLNHEINSHKTHFITQFDPVSQMNTRPLIQLIEKFGSKIYDYWRERKIEVNGYEIFPQLKFERPGEKEEIDPYVCFRRREVRHPRKTRRIDILNSQRLRALHQELKNAKDLALLVAKRENVSLNWINDELKIFDQRVKIKNLKRSLNISGEDDDLINHKRKRPTIVTVEQREAELRKAELKRAAAAAAAAKAKNNKRNNQLEDKSSRLTKQQQQQLLQQQQQQQQNALKTENGKQLANASSSSTSQPITSHVYVKLPSSKIPDIVLEDVDALLNSKEKNARKFVQEKMEKRKIEDADVFFNLTDDPFNPVFDMSLPKNFSTSNVPFASIASSKFQIDRSFYSSHLPEYLKGISDDIRIYDSNGRSRNKDNYNLDTKRIKKTELYDPFQENLEIHSREYPIKFRKRVGRSNIKYVDRMPNFTTSSTKSACSLMDFVDFDSIEKEQYSREGSNDTDSINVYDSKYDEFVRLYDKWKYDSPQNEYGIKFSDEPARLNQISNDTQVIRFGTMLGTKSYEQLREATIKYRRDYITRLKQKHIQHLQQQQQQQQQQQQQAQQQKQKSQNNNSNSSNSLKKLNDSLINSEAKQNSSITQKNSS

Key:
Eaf1 = target: B2; experiment: cryo-EM structure
Tra1 = Tra1 (Saccharomyces cerevisiae, UniProt P38811 1-3744); experiment: cross-linking
Epl1 [1] = target: B7; experiment: cryo-EM structure
Yng2 = target: B4; experiment: cryo-EM structure
Epl1 [2] = target: B7; experiment: cross-linking

Chain of Tra1 (P38811 whole entry): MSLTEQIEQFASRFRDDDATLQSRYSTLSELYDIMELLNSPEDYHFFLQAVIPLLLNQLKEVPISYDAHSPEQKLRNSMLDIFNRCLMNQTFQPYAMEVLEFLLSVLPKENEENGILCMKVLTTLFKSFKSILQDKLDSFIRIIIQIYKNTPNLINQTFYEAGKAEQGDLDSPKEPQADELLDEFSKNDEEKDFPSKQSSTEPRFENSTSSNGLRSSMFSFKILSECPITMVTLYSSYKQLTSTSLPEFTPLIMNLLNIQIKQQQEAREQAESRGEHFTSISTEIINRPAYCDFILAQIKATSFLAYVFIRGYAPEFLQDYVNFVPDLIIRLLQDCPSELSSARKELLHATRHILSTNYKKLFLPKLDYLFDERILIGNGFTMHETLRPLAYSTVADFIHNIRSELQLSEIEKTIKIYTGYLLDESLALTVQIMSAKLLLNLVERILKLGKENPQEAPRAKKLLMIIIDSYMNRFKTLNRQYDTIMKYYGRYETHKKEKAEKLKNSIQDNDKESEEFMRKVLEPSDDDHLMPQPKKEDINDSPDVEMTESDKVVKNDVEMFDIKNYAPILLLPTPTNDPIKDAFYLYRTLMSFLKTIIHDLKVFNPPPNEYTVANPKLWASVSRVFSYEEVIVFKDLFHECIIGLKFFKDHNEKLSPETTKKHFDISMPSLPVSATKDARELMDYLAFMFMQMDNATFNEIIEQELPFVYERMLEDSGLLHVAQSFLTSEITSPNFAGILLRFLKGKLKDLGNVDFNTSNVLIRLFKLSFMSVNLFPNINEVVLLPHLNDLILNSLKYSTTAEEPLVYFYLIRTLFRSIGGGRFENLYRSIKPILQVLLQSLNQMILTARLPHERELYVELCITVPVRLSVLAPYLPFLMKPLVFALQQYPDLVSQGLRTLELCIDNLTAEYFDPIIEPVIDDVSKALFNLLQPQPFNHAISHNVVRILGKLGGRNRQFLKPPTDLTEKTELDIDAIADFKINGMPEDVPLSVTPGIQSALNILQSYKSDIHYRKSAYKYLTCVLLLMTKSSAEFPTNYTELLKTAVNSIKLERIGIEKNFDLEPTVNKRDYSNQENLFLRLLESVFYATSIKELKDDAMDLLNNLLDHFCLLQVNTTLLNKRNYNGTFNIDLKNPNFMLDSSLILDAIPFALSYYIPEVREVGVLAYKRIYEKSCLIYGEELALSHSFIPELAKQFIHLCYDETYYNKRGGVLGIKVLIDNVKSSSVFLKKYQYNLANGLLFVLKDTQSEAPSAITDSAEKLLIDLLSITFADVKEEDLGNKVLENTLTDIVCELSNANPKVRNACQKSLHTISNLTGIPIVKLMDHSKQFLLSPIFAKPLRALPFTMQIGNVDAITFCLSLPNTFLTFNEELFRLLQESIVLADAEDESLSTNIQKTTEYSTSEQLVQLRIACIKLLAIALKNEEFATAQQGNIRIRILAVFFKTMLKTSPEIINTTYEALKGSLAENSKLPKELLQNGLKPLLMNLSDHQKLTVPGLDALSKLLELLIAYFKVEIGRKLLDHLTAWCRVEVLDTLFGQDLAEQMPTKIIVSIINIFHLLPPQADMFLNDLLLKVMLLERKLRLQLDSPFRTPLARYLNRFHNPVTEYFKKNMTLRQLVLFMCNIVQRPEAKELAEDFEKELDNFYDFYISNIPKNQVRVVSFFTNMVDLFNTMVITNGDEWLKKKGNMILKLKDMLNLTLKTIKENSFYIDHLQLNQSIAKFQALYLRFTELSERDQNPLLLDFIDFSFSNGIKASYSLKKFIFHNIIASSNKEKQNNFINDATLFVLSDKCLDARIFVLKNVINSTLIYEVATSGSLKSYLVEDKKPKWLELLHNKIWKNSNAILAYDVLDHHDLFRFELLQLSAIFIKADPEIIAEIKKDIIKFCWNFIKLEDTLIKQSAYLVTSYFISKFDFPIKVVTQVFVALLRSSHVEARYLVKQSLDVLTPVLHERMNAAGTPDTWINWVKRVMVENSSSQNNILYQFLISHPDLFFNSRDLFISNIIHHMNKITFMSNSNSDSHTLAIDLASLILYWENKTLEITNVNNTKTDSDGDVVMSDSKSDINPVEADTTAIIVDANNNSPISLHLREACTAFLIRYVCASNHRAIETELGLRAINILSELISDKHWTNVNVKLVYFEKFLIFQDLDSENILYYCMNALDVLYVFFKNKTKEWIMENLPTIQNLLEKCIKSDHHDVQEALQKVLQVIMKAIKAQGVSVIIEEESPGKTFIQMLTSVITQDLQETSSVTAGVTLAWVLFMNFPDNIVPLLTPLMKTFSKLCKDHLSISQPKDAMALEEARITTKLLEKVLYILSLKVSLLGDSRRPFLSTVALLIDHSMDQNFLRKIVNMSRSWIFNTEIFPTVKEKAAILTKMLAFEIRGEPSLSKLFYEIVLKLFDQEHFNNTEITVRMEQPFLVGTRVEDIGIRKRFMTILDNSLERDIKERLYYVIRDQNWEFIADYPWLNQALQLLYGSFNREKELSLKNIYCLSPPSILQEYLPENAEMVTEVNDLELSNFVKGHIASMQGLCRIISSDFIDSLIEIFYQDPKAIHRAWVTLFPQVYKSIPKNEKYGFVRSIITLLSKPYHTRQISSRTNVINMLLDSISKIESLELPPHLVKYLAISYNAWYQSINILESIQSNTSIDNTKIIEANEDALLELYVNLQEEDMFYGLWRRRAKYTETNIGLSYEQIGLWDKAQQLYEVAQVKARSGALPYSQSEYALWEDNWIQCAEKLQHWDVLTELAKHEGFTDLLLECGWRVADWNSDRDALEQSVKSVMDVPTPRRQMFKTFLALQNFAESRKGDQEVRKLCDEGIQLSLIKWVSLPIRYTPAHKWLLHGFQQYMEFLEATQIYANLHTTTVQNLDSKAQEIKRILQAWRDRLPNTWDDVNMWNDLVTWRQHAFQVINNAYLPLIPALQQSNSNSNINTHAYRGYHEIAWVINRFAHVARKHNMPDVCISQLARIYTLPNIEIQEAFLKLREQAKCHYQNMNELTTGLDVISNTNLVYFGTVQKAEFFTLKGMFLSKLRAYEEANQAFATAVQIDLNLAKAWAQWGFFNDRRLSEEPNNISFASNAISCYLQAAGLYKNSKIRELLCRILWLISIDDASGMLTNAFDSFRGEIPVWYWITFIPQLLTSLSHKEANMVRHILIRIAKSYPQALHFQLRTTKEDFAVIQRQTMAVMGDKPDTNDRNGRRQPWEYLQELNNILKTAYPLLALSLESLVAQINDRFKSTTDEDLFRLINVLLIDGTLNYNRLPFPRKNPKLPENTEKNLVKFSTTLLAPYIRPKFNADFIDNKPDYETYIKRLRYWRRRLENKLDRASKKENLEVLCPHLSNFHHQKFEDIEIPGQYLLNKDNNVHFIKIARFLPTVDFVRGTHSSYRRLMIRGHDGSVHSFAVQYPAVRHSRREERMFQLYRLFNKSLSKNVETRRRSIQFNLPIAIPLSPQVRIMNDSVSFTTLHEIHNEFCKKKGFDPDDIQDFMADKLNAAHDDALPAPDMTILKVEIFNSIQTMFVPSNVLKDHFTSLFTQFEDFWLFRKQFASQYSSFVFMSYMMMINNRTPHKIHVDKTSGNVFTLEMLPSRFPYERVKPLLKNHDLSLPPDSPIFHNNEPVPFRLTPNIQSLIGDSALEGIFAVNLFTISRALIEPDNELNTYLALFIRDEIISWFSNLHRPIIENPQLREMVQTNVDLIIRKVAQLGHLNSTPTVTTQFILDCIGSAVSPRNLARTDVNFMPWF

Binder: B2
binding result (Tra1): binds

Binder: B4
binding result (Epl1 [1]): binds

Binder: B7
binding result (Eaf1): binds

More lines, now with the values ahead:

binding result (Eaf1): binds
B1: Eaf2 (natural protein)
chain: MSSSDIFDVLNIKQKSRSPTNGQVSVPSSSAANRPKPQVTGMQRELFNLLGENQPPVVIKSGNNFKEKMLSTSKPSPWSFVEFKANNSVTLRHWVKGSKELIGDTPKESPYSKFNQHLSIPSFTKEEYEAFMNENEGTQKSVESEKNHNENFTNEKKDESKNSWSFEEIEYLFNLCKKYDLRWFLIFDRYSYNNSRTLEDLKEKFYYTCRNYFKASDPSNPLLSSLNFSAEKEIERKKYLQRLLSRSAAEIAEEEALVVESKKFEMAAKRTLAERESLLRLLDSPHSDQTITQYLTSQGMSQLYNALLADKTRKRKHDLNIPENPWMKQQQQFAQHRQLQQLNVKKSEVKENLSPKKTKRQRQEMQTALKRKSESAYAEQLLKDFNSDERKALGVITHGEKLSPGVYLRSTKLSTFKPALQNKILAILQELSLPSRPVMPSFDVMERQEELLKKINTLIDLKKHVDKYEAGMSITK

binding result (Tra1): binds
B3: Gal4-VP16 fusion protein (other)
chain: MKLLSSIEQACDICRLKKLKCSKEKPKCAKCLKNNWECRYSPKTKRSPLTRAHLTEVESRLERLEQLFLLIFPREDLDMILKMDSLQDIKALLTGLFVQDNVNKDAVTDRLASVETDMPLTLRQHRISATSSSEESSNKGQRQLTVSAPPTDVSLGDELHLDGEDVAMAHADALDDFDLDMLGDGDSPGPGFTPHDSAPYGALDMADFEFEQMFTDALGIDEYGG

binding result (Epl1 [1]): binds
B5: Esa1 (enzyme)
chain: MSHDGKEEPGIAKKINSVDDIIIKCQCWVQKNDEERLAEILSINTRKAPPKFYVHYVNYNKRLDEWITTDRINLDKEVLYPKLKATDEDNKKQKKKKATNTSETPQDSLQDGVDGFSRENTDVMDLDNLNVQGIKDENISHEDEIKKLRTSGSMTQNPHEVARVRNLNRIIMGKYEIEPWYFSPYPIELTDEDFIYIDDFTLQYFGSKKQYERYRKKCTLRHPPGNEIYRDDYVSFFEIDGRKQRTWCRNLCLLSKLFLDHKTLYYDVDPFLFYCMTRRDELGHHLVGYFSKEKESADGYNVACILTLPQYQRMGYGKLLIEFSYELSKKENKVGSPEKPLSDLGLLSYRAYWSDTLITLLVEHQKEITIDEISSMTSMTTTDILHTAKTLNILRYYKGQHIIFLNEDILDRYNRLKAKKRRTIDPNRLIWKPPVFTASQLRFAW

binding result (Epl1 [1]): binds
binding result (Yng2): binds
B6: Eaf6 (natural protein)
chain: MTDELKSYEALKAELKKSLQDRREQEDTFDNLQQEIYDKETEYFSHNSNNNHSGHGGAHGSKSHYSGNIIKGFDTFSKSHHSHADSAFNNNDRIFSLSSATYVKQQHGQSQND

binding result (Epl1 [2]): binds
B8: Eaf3 (natural protein)
chain: MVDLEQEFALGGRCLAFHGPLMYEAKILKIWDPSSKMYTSIPNDKPGGSSQATKEIKPQKLGEDESIPEEIINGKCFFIHYQGWKSSWDEWVGYDRIRAYNEENIAMKKRLANEAKEAKKSLLEQQKKKKLSTSLGGPSNGGKRKGDSRSNASISKSTSQSFLTSSVSGRKSGRSSANSLHPGSSLRSSSDQNGNDDRRRSSSLSPNMLHHIAGYPTPKISLQIPIKLKSVLVDDWEYVTKDKKICRLPADVTVEMVLNKYEHEVSQELESPGSQSQLSEYCAGLKLYFDKCLGNMLLYRLERLQYDELLKKSSKDQKPLVPIRIYGAIHLLRLISVLPELISSTTMDLQSCQLLIKQTEDFLVWLLMHVDEYFNDKDPNRSDDALYVNTSSQYEGVALGM
